Assay results reported in IntAct's records for PubMed 21821029.

Target: aurka_human AURKA (UniProt O14965)
Sequence (O14965 whole entry): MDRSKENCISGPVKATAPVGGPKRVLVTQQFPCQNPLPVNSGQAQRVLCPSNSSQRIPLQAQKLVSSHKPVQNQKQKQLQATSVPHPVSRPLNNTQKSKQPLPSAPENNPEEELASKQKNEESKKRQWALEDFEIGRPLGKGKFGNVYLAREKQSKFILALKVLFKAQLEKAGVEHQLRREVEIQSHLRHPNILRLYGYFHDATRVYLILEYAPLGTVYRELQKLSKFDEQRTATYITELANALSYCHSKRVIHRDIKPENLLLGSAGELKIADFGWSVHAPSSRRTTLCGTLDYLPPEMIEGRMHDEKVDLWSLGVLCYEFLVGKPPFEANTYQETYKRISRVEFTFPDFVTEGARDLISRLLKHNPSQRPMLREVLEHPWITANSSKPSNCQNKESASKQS

With “Heterogeneous nuclear ribonucleoprotein K (Homo sapiens), P61978-2 S379A” the “effect of a mutation on the interaction” value was “disrupting interaction”.
